Here are results for 23 molecules from patent US20230176070A1 (published 2023).

B1: G82 (VHH)
VHH: HVQLVESGGGLVQAGGSLRLSCAASGKIFSLSTMGWYRQAPGKQRELVAALTSGGSTNYADSVKGRFTISRDNAKYTTYLQMNSLKPEDTAVYYCNVRYYSGYDGYESNSWGQGTQVTVSS
B2: G2 (VHH)
VHH: EVQLVESGGDLVQAGGSLRLSCSASGNIFKINDMGWYRQAPGKQRELVARISSSGNTNYADSVKGRFTISRDNGKNTVYLQMNRVKPEDTAVYYCNADVQVSRNYEYEYWGQGTQVTVSS
B3: G47 (VHH)
VHH: QVQLVESGGGLVQAGGSLRLSCAASERIFSNYAMGWFRQAPGKEREFVASIRGSGSQTSYADSVKGRFTISRDGAKDTVDLQMNSLKPEDTAVYYCSAKKYCGSTYNRAEGYDYWGQGTQVTVSS
B4: G34 (VHH)
VHH: QVQLVESGGGLVQAGDSLRLSCAASGRTFSRYAMAWFRQAPGKEREFVAGISWTGRFTYYADSVKGRFTISRDDAKNTVYLQMNNLKPEDTGLYFCKVGDPYGVGLREYEWWGPGTQVTVSS
B5: G83 (VHH)
VHH: QVQLVESGGGLVQAGGSLRLSCAASRRTFSIYNMGWFRQAPGKEREFVATITRYGDRTYTADSVKGRFTISSDQAKNTVYLQMNSLNPHDTAVYYCAADSAYSGPDFKHYDYWGQGTQVTVSS
B6: G48 (VHH)
VHH: QVQLVESGGGLVQAGGSLRLSCAASGRTFSTLSMGWFRQAPGQGREFVGGINYDGSSVEYADSVKGRFTISRDNAKNMMYLQMNSLKPEDTAAYYCASSRGYNTGTNPLGYDVWGQGTQVTVSS
B7: G13 (VHH)
VHH: DVQLVESGGGVVQAGGSLRLSCAASGRTFSDYAMGWFRQAPGKEREFVAGVSWSGVDTYYADSVKGRFTISRDNAKNTLYVQMNSLKPEDTAVYYCAAQRYYHGHAKNMRYDYWGQGTQVTVSS
notes: also called G13(C3)
B8: G7 (VHH)
VHH: QVQLVESGGGLVQPGDSLRLSCAVSGQYVNMAAMGWFRQAPGKEREFVAGISWSDDTDIADSVKGRFTISRDHGKNTVDLQMNSLKPEDTGVYLCAGRFRRLAKDFGEYDYWGQGTQVTVSS
B9: G22 (VHH)
VHH: QVQLVESGGGSVQAGGSLRLSCAASGRTFSSYSMAWFRQAPGKEREFVAVMNCRYGDTDYPDSVKGRFTMSRDNAKNTLYLQMNSLKPEDTAVYYCAAKLIAYCGSGYYYRRNDYGYWGQGTQVTVSS
B10: G17 (VHH)
VHH: EVQLVESGGGLVQAGGSLRLSCAASGVTISYWVMGWFRQAPGKEREFVARISWGGERTYYADSVKGRFAISRDNAKNTVYLQMNSLNAEDTAVYYCAADRTGWGHSNSRSEYDYWGQGTQVTVSS
B11: G95 (VHH)
VHH: HVQLVESGGGLVQAGGSLRLSCAASGRTFSSYAMAWFRQAVGKEREFVAAVSRSGTNLYYADSVKGRFTISRDTAKNTMYLQMNSLKPEDTALYYCAAGEALRWGIGQQPRSEFFDYWGQGTQVTVSS
notes: also called G95(C2)
B12: G9 (VHH)
VHH: DVQLVESGGGLVQPGGSLRLSCAASGLTLDNYDMAWFRQAPGKEREFVTAINYVGGRTYADSVRGRFTISRDDTKNTVYLQMNSLKPEDTAVYYCAAGLQYGITSLRTRNYNYWGQGTQVTVSS
B13: H4 (VHH)
VHH: HVQLVESGGGLVQTGGSLRLACAASGRAFSTYAMGWFRQAPGKEREFVASINRSGSSTYYADSVKGRFTISRDNGKDTVYLQMNRLIPEDTAVYYCAADSEGVGFRNMLEYDYWGQGTQVTVSS
B14: H2 (VHH)
VHH: QVQLVESGGGLVQAGGSLRLSCTASGRTFTPYTIGWFRQAPGKEREFVASILWSGINTDYADSVKGRFAISRDNAKNAAYLQMSNLKPEDTAVYYCATGGGLGYYRSVSQYDYWGQGTQVTVSE
B15: H7 (VHH)
VHH: DVQLVESGGGSVQAGGSLRLSCAASGGTFSSYAMGWYRQAPGKEREFVSGISWSGSSIDYVDSVKGRFTISRDNAKNTVYLQMNSLKPEDTAVYYCGAADPMGLGYGLGPRPVDRLLSAECDYWGQGTQVTVSS
B16: H3 (VHH)
VHH: QVQLVESGGGLVQAGGSLRLSCVASGRTFEPFVMGWFRQAPGKEREFVATISWSGGSLSYADSVKGRFTVSRDNAKNTVYLQMNSLKPEDTAVYYCAAAPGVGNYRYTFQYDYWGQGTQVTVSE
B17: H11 (VHH)
VHH: QVQLVESGGGLVQVGGSLRLSCAASGRTFSNYVMGWFRQAPGKEREFVAYIHWSGSSTSYADSVKGRFTISRDNTKNTMYLQMNSLKPEDTAVYYCTADQYASTLLRAAGEYWGQGTQVTVSS
B18: G72 (VHH)
VHH: QVQLVESGGGLVQPGGSLRLSCATSGSTFSINGIGWYRQVPGIEREFVAGVSTDGKANYADSVAGRFTISINDGKNTAYLQMNSLKPEDTAVYYCNVDSTKGYYWGQGTQVTVSS
B19: G46 (VHH)
VHH: DVQLVESGGGLVQAGGSLRLSCAASGRTFSRYHMGWFRQAPGKERDVVAAISWSGDSTYYADSVKGRFTISKDNAKNTVYLQMDNLKPEDTAVYYCNVRGGVLRPYDYWGQGTQVTVSS
B20: H1 (VHH)
VHH: QVQLVESGGGLVQPGGSLRLSCVASGIMFDIYTMRWYRQAPGKQRELVAAITGAGRANYNDDSVKGRFTISRDNAKNTVYLQMNRMKPEDTALYECNTEILGGGPNYWGRGTQVTVSE
B21: H15 (VHH)
VHH: QVQLVESGGGLVQAGDSLRLSCAASERTSNYAMGWFRQAPGKEREFVADINHTGGRRKYGDSVKGRFTISRDNAENMVYLQMNNLQVEDTAVYYCATGLRYDVSGYAPDYRYWGRGTQVTVSS
B22: H35 (VHH)
VHH: EVQLVESGGGLVQAGGSLRVSCAVSGISIYHSGWYRQAPGKERELVAGISRGGSTNYADSVKGRFTISRDSGENTVYLQMNSLKPEDTAVYYCKIDWDYRGVSQTAWGQGTQVTVSS
B23: H24 (VHH)
VHH: QVQLVESGGGLVQAGGSLRLSCVSSGRTYRWNAMGWFRQAPGKEREFVAAIDWDGRNTDYADSVKGRFTISRDNAKNTVYLQMNSLKVEDTAIYYCAAREWGSGGYSSIASYAYWGQGTQVTVSS

T2 sequence (P02768 25-609 limits assumed): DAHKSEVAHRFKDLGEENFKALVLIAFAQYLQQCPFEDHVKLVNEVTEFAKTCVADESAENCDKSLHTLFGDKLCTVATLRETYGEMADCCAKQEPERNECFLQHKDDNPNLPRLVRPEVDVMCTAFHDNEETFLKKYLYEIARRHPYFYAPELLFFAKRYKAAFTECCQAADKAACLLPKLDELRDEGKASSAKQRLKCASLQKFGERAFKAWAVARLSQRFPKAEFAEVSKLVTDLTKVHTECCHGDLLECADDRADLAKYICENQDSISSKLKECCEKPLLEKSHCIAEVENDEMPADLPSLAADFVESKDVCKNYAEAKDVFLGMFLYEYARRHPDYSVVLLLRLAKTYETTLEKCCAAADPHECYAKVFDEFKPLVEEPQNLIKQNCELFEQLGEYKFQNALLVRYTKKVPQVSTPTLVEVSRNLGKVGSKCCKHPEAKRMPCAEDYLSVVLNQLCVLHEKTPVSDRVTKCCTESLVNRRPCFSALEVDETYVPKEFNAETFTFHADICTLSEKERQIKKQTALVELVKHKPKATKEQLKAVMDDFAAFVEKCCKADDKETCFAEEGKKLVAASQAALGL

The target in the first assay is T1, glutathione S-transferase (UniProt P08515 1-218 = GST).
T1 construct: Expressed in E. coli, purified on GSH resin; also called GST
T1 sequence (P08515 whole entry): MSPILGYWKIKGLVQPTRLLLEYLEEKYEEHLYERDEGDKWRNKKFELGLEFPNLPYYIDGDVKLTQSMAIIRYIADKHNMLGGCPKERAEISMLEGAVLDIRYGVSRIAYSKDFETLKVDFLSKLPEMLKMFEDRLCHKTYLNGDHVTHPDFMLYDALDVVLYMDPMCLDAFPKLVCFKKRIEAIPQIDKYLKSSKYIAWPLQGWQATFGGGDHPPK
In words: SPR, GST immobilised. (In general: Surface plasmon resonance follows binding to a sensor surface in real time, without labels.)
Procedure: (§1) Nb affinity measurement by SPR. Surface plasmon resonance (SPR, Biacore 3000 system, GE Healthcare) was used to measure Nb affinities. Antigen proteins immobilized on the activated CM5 sensor-chip by the following steps. Protein analytes were diluted to 10-30 μg/ml in 10 mM sodium acetate, pH 4.5, and were injected into the SPR system at 5 μl/min for 420 s. The surface of the sensor was then blocked by 1 M ethanolamine-HCl (pH 8.5). For each Nb analyte, a series of dilution (spanning three orders of magnitude) was injected in HBS-EP+ running buffer (GE-Healthcare) containing 2 mM DTT, at a flow rate of 20-30 μl/min for 120-180 s, followed by a dissociation time of 5-20 mins based on dissociation rate. Between each injection, the sensor chip surface was regenerated with the low pH buffer containing 10 mM glycine-HCl (pH 1.5-2.5), or high pH buffer of 20-40 mM NaOH (pH 12-13). The regeneration was performed with a flow rate of 40-50 μl/min for 30 s. The measurements were duplicated and only highly reproducible data was used for analysis. Binding sensorgrams for each Nb were processed and analyzed using BIAevaluation by fitting with 1:1 Langmuir model or 1:1 Langmuir model with mass transfer.
Broadly, the Kd is the concentration at which binding is half-saturated. The low end stands for tighter binding, the high end for weaker binding. As usually defined, the koff is a measure of how fast the partners let go of each other. For orientation: kon means the rate constant with which the complex forms. In turn, B1 yielded a Kd of 0.504 nM, an off-rate (koff) of 0.000561 s⁻¹ and a kon of 1.11e+06 M⁻¹ s⁻¹.

As for B2, the Kd stood at 2000 nM and the koff stood at 0.00204 s⁻¹.

As to B3, binding was characterised by a dissociation constant (Kd) of 32.4 nM, the koff is 0.0127 s⁻¹ and the on-rate constant (kon) was determined as 391000 M⁻¹ s⁻¹.

In turn, B4 returned a Kd of 17.6 nM, a dissociation rate constant (koff) of 0.000462 s⁻¹ and a kon of 26300 M⁻¹ s⁻¹.

Consider B5, for which the Kd stood at 0.761 nM, the dissociation rate constant (koff) came out at 0.000751 s⁻¹ and the on-rate constant (kon) was found to be 987000 M⁻¹ s⁻¹.

For the molecule B6, the equilibrium dissociation constant (Kd) came to 126 nM, the dissociation rate constant (koff) was determined as 0.000753 s⁻¹ and the on-rate (kon) was 5930 M⁻¹ s⁻¹.

Turning to B7, the Kd amounted to 0.36 nM, the koff was found to be 0.00017 s⁻¹ and the kon was determined as 474000 M⁻¹ s⁻¹.

In the case of B8, the Kd came out at 268 nM, the dissociation rate constant (koff) stood at 0.000809 s⁻¹ and the kon is 3020 M⁻¹ s⁻¹.

In turn, B9 yielded an equilibrium dissociation constant (Kd) of 40.5 nM, an off-rate constant (koff) of 0.00125 s⁻¹ and a kon of 30900 M⁻¹ s⁻¹.

As for B10, the Kd is 0.0217 nM, the koff is 2.92e-05 s⁻¹ and the on-rate constant (kon) was 1.34e+06 M⁻¹ s⁻¹.

In the case of B11, the affinity, expressed as Kd, was 77 nM; the dissociation rate constant (koff) came to 0.00107 s⁻¹; the kon stood at 13900 M⁻¹ s⁻¹.

For B12, the Kd stood at 0.177 nM, the off-rate constant (koff) worked out at 0.000353 s⁻¹ and the on-rate (kon) is 2e+06 M⁻¹ s⁻¹.

The next assay has as its target T2, human serum albumin (human, UniProt P02768 25-609).
T2 construct: In the mutant screen wild type HSA came from medium of transfected HeLa cells; also called HSA; wild type HSA
The experiment in a line: SPR, HSA immobilised.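 Also: nanobody analytes injected as dilution series across three log units over CM5 chip with amine-coupled antigen, kinetics fitted by 1:1 Langmuir model, optionally with mass transfer.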
Procedure: as §1
For the molecule B13, the dissociation constant Kd came out at 0.266 nM, the koff was found to be 0.000264 s⁻¹ and the kon is 992000 M⁻¹ s⁻¹.

The molecule B14 returned a dissociation constant (Kd) of 0.17 nM, a koff of 3.99e-05 s⁻¹ and a kon of 234000 M⁻¹ s⁻¹.

In turn, B15 displayed a Kd of 1.09 nM, a koff of 9.79e-05 s⁻¹ and a kon of 93500 M⁻¹ s⁻¹.

Turning to B16, binding was characterised by a dissociation constant (Kd) of 0.454 nM, the off-rate (koff) amounted to 0.000504 s⁻¹ and the on-rate (kon) worked out at 1.11e+06 M⁻¹ s⁻¹.

B17: the affinity, expressed as Kd, was 0.061 nM; the off-rate constant (koff) came out at 1.55e-05 s⁻¹; the kon came to 255000 M⁻¹ s⁻¹.

The target in another assay is T1, glutathione S-transferase. The experiment in a line: indirect ELISA, GST coated.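 Also: nanobody dilution series starting at 10 µM binding plate-bound antigen, HRP anti-His or anti-T7 tag detection, TMB absorbance at 450 nm, logIC50 from four-parameter logistic fit.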
Procedure: (§2) Indirect ELISA was carried out to evaluate the camelid immune response of an antigen and to quantify the relative affinities of antigen-specific Nbs. An antigen was coated onto a 96-well ELISA plate (R&D system) at an amount of approximately 1-10 ng per well in a coating buffer (15 mM sodium carbonate, 35 mM sodium bicarbonate, pH 9.6) overnight at 4° C. The well surface was then blocked with a blocking buffer (DPBS, 0.05% Tween 20, 5% milk) at room temperature for 2 hours. To test an immune response, the immunized serum was serially 5-fold diluted in the blocking buffer. The diluted sera were incubated with the antigen coated wells at room temperature for 2 hours. HRP-conjugated secondary antibodies against llama Fc (Bethyl) were diluted 1:10,000 in the blocking buffer and incubated with each well for 1 hour at room temperature. […] Nbs of both specific binders for test and scramble negative controls were serially 10-fold diluted from 10 μM to 1 μM in the blocking buffer. HRP-conjugated secondary antibodies against His-tag (Genscript) or T7-tag (Thermo) were diluted 1:5,000 or 1:10,000 in the blocking buffer and incubated for 1 hour at room temperature. Three washes with 1x PBST (DPBS, 0.05% Tween 20) were carried out to remove nonspecific absorbance between incubations. After the final wash, the samples were further incubated under dark with freshly prepared w3,3′,5,5′-Tetramethylbenzidine (TMB) substrate for 10 mins at room temperature to develop the signals. After the STOP solution (R&D system), the plates were read at multiple wavelengths (450 nm and 550 nm) on a plate reader (Multiskan GO, Thermo Fisher). A false positive Nb binder was defined if any of the following two criteria was met: i) the ELISA signal can only be detected at a concentration of 10 μM and was under detected at 1 μM concentration. ii) At 1 μM concentration, a pronounced signal decrease (by more than 10-fold) was detected compared to the signal at 10 μM, while there were no signals can be detected at lower concentrations. The raw data was processed by Prism 7 (GraphPad) to fit into a 4PL curve and to calculate logIC50.
In the case of B1, the “ELISA affinity (LogIC50 (oD450nm))” value worked out at 7.22.

Consider B2, for which the “ELISA affinity (LogIC50 (oD450nm))” value was 2.67.

For the molecule B3, the “ELISA affinity (LogIC50 (oD450nm))” value is 3.86.

Turning to B4, the “ELISA affinity (LogIC50 (oD450nm))” value came to 5.32.

Turning to B18, the binding result was “no binding (tested: Nb titrated from 10 µM)”.

For the molecule B5, the “ELISA affinity (LogIC50 (oD450nm))” value stood at 8.72.

Turning to B6, the “ELISA affinity (LogIC50 (oD450nm))” value was 1.6.

With B7, the “ELISA affinity (LogIC50 (oD450nm))” value came out at 6.74.

Consider B8, for which the “ELISA affinity (LogIC50 (oD450nm))” value was found to be 1.89.

Take B9: the “ELISA affinity (LogIC50 (oD450nm))” value is 2.07.

With B19, the binding result is on record as “no binding (tested: Nb titrated from 10 µM)”.

B10: the “ELISA affinity (LogIC50 (oD450nm))” value was determined as 9.81.

For B11, the “ELISA affinity (LogIC50 (oD450nm))” value was 3.76.

With B12, the “ELISA affinity (LogIC50 (oD450nm))” value came out at 8.05.

The target of another assay is T2, human serum albumin. In words: indirect ELISA, HSA coated.
Procedure: as §2
B20: the “ELISA affinity (LogIC50 (oD450nm))” value was found to be 4.92.

With B21, the binding result is reported as “no binding (tested: Nb titrated from 10 µM)”.

Take B13: the “ELISA affinity (LogIC50 (oD450nm))” value was determined as 5.4.

As to B22, the binding result is “no binding (tested: Nb titrated from 10 µM)”.

Consider B14, for which the “ELISA affinity (LogIC50 (oD450nm))” value was 5.88.

On to B15, for which the “ELISA affinity (LogIC50 (oD450nm))” value was found to be 5.62.

Consider B16, for which the “ELISA affinity (LogIC50 (oD450nm))” value was found to be 7.

With B17, the “ELISA affinity (LogIC50 (oD450nm))” value was 6.27.

As to B23, the binding result is recorded as “no binding (tested: Nb titrated from 10 µM)”.
